Target: T1, Vascular Endothelial Growth Factor (VEGF), receptor binding domain, VEGF_(8–109) (human)
T1 chain: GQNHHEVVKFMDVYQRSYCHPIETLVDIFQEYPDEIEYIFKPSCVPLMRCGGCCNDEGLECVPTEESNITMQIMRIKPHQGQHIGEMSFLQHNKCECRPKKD
Test: SPR

B1: bH1-44 Fab (affinity-improved variant of bH1) (Fab, V domains shown)
VH: EVQLVESGGGLVQPGGSLRLSCAASGFNISGTYIHWVRQAPGKGLEWVARIYPSEGYTRYADSVKGRFTISADTSKNTAYLQMNSLRAEDTAVYYCSRWVGVGFYAMDYWGQGTLVTVSS
VL: DIQMTQSPSSLSASVGDRVTITCRASQNIAKTISGYVAWYQQKPGKAPKLLIYWGSFLYSGVPSRFSGSGSGTDFTLTISSLQPEDFATYYCQQHYSSPPTFGQGTKVEIK
- koff: 0.0014 s⁻¹

From paper PMC3081289 (2011)
